Holding throughout (test): GST pull-down, anti-Smad7 immunoblot
A general note: In western blotting, separated proteins are transferred to a membrane and probed.

In one experiment the target is T1, GST-β-catenin aa575–683 (Mus musculus (Mouse), UniProt Q02248).
T1 chain: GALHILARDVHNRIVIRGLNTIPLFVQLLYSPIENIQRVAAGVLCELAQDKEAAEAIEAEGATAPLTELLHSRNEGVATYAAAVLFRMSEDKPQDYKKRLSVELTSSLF

Another experiment addresses T2, GST-β-catenin aa575–696 (Mus musculus (Mouse), UniProt Q02248).
T2 chain: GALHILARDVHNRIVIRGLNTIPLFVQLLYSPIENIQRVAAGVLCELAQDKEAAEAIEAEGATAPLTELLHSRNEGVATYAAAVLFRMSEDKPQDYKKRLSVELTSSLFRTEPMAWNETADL

For another experiment, the target named is T3, GST-β-catenin aa422–683 (Mus musculus (Mouse), UniProt Q02248).
T3 chain: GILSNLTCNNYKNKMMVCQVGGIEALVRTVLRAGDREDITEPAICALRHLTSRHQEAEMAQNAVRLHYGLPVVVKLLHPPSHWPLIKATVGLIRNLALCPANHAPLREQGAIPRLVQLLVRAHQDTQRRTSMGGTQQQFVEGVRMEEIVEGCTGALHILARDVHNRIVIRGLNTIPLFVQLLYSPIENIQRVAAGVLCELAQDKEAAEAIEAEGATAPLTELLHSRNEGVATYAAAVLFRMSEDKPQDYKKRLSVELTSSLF

The target in the next experiment is T4, GST-β-catenin aa1–106 (Mus musculus (Mouse), UniProt Q02248).
T4 chain: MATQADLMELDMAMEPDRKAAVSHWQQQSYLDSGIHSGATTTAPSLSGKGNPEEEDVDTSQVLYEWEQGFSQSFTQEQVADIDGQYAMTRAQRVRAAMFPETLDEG

Another experiment deals with T5, GST-β-catenin aa1–574 (Mus musculus (Mouse), UniProt Q02248).
T5 chain: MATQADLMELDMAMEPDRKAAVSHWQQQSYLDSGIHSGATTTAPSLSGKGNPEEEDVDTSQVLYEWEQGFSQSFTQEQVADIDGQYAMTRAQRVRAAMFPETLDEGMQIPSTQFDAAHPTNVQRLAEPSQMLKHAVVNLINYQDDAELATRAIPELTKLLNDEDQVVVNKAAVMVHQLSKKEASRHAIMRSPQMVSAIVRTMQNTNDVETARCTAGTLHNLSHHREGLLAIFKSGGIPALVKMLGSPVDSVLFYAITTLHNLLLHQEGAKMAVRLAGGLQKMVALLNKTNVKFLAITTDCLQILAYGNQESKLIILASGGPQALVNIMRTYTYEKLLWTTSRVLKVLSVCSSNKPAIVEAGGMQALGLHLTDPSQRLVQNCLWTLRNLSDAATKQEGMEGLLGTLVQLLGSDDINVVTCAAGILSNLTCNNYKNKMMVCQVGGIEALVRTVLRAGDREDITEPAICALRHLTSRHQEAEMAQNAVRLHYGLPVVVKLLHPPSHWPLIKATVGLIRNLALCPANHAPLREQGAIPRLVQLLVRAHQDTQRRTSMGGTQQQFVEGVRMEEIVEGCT

Another experiment concerns the target T6, GST-β-catenin aa120–683 (Mus musculus (Mouse), UniProt Q02248).
T6 chain: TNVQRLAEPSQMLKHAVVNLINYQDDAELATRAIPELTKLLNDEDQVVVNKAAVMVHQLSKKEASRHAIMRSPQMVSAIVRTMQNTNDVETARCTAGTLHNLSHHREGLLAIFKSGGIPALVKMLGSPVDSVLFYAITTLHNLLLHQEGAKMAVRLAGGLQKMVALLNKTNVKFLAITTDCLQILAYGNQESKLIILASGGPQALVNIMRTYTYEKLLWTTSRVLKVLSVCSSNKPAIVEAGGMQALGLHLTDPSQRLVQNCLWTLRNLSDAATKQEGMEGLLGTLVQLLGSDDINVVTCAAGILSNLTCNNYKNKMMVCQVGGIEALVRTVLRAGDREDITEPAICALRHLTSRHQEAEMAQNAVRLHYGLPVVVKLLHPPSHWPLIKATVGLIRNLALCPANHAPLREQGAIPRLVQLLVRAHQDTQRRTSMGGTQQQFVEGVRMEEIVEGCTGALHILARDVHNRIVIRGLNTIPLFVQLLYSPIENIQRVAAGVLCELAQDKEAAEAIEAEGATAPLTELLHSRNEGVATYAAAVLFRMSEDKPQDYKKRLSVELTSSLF

B1: Smad7 (GST tag removed by thrombin) (protein)
chain: MFRTKRSALVRRLWRSRAPGGEDEEEGVGGGGGGGELRGEGATDGRAYGAGGGGAGRAGCCLGKAVRGAKGHHHPHPPTSGAGAAGGAEADLKALTHSVLKKLKERQLELLLQAVESRGGTRTACLLLPGRLDCRLGPGAPASAQPAQPPSSYSLPLLLCKVFRWPDLRHSSEVKRLCCCESYGKINPELVCCNPHHLSRLCELESPPPPYSRYPMDFLKPTAGCPDAVPSSAETGGTNYLAPGGLSDSQLLLEPGDRSHWCVVAYWEEKTRVGRLYCVQEPSLDIFYDLPQGNGFCLGQLNSDNKSQLVQKVRSKIGCGIQLTREVDGVWVYNRSSYPIFIKSATLDNPDSRTLLVHKVFPGFSIKAFDYEKAYSLQRPNDHEFMQQPWTGFTVQISFVKGWGQCYTRQFISSCPCWLEVIFNSR
On to B1, for which the binding result in the experiment with GST-β-catenin aa575–683 was “binds”; with GST-β-catenin aa575–696, “binds”; with GST-β-catenin aa422–683, “binds”; with GST-β-catenin aa1–106 it was “no binding”; in the experiment with GST-β-catenin aa1–574, “no binding”; in the experiment with GST-β-catenin aa120–683, “binds”.
